# Measured values taken from patent US12139520B2 (priority 2020, dated 2024).
# Substitutions are numbered along the chain they refer to. Numbered stars: 1 amine (or outer) side, 2 acyl side, 3 side chain; on linkers, the order of the positions; unused ones are H or OH. Bridge positions count the residues as written; N and C are the ends. Square brackets hold non-standard residues; d marks the D form. Side chains are listed from the residue outwards. Ends that are not written are not given here. * marks the point of attachment. C20 diacid = O=C(O)CCCCCCCCCCCCCCCCCCC(=O)*; γGlu = O=C(O)[C@H](CCC(=O)[*:2])N[*:1]; Hyp = O=C(O)[C@@H]1C[C@@H](O)CN1; AEEA = NCCOCCOCC(=O)O
# B1: SEQ ID NO: 343 (peptide)
# peptide: GCRFGTCTVQWLAHQIYQFTDKDKDNVAPRTKIGPNG[Hyp]-NH2
# modifications: disulfide 2-7 (inferred); ends not checked
# B2: SEQ ID NO: 351 (peptide)
# peptide: GCRIGTCTVQWLAHQIYQFTDKFKDNVAPRSKISPQT[Hyp]-NH2
# modifications: disulfide 2-7 (inferred); ends not checked
# B3: SEQ ID NO: 339 (peptide)
# peptide: GCRTGTCTVQWLAHQIYQFTDKDKDNVAPRTKIGPNG[Hyp]-NH2
# modifications: disulfide 2-7 (inferred); ends not checked
# B4: SEQ ID NO: 4 (peptide)
# peptide: {C20 diacid-γGlu}-KCNTATCTVDRLAHQIYQFTDKDKDNVAPPTNVGSNG[Hyp]-NH2
# modifications: disulfide 2-7 (inferred); ends not checked
# B5: SEQ ID NO: 336 (peptide)
# peptide: GCRFGTCTVQWLAHQIYQFTDKDKDNVAPRTKIGPQG[Hyp]-NH2
# modifications: disulfide 2-7 (inferred); ends not checked
# B6: SEQ ID NO: 341 (peptide)
# peptide: GCRTGTCTVQWLAHQIYQFTDKDKDNVAPRTNIGPQG[Hyp]-NH2
# modifications: disulfide 2-7 (inferred); ends not checked
# B7: SEQ ID NO: 363 (peptide)
# peptide: KCNFATCATQRLANFLVQFTDKDKDNVAPRSKIGPQGY
# B8: SEQ ID NO: 342 (peptide)
# peptide: GCRTGTCTVQWLAHQIYQFTDKDKDNVAPRSNVGPQG[Hyp]-NH2
# modifications: disulfide 2-7 (inferred); ends not checked
# B9: SEQ ID NO: 360 (peptide)
# peptide: GCRTGTCTVQWLAHQIYQFTDKDKDNVAPRSNVSPNG[Hyp]-NH2
# modifications: disulfide 2-7 (inferred); ends not checked
# B10: SEQ ID NO: 353 (peptide)
# peptide: GCRFGTCTVQWLAHQIYQFTDKDKDNVAPRSKVGPQG[Hyp]-NH2
# modifications: disulfide 2-7 (inferred); ends not checked
# B11: SEQ ID NO: 352 (peptide)
# peptide: GCRTGTCTVQWLAHQIYQFTDKDKDNVAPRSNIGPNG[Hyp]-NH2
# modifications: disulfide 2-7 (inferred); ends not checked
# B12: SEQ ID NO: 335 (peptide)
# peptide: GCRTGTCTVQWLAHQIYQFTDKDKDNVAPRTNVGPQGY
# B13: SEQ ID NO: 356 (peptide)
# peptide: B12 peptide with V33I
# B14: SEQ ID NO: 340 (peptide)
# peptide: B12 peptide with T4F, G34S
# B15: SEQ ID NO: 346 (peptide)
# peptide: B12 peptide with T31S
# B16: SEQ ID NO: 362 (peptide)
# peptide: B12 peptide with T4F, W11R
# B17: SEQ ID NO: 344 (peptide)
# peptide: B12 peptide with T31S, N32K
# B18: SEQ ID NO: 348 (peptide)
# peptide: B12 peptide with V33I, Q36N
# B19: SEQ ID NO: 354 (peptide)
# peptide: B12 peptide with N32K
# B20: SEQ ID NO: 345 (peptide)
# peptide: B12 peptide with T4F, T31S, G34S
# B21: SEQ ID NO: 35 (peptide)
# peptide: {C20 diacid-γGlu}-KCNTATCTVQRLAHQIQQFTDKDKDNVAPPTNVGSNG[Hyp]-NH2
# modifications: disulfide 2-7 (inferred); ends not checked
# B22: SEQ ID NO: 359 (peptide)
# peptide: GCRTGTCTVQWLAHQIYQFTDKDKDNVAPRSNIGPQG[Hyp]-NH2
# modifications: disulfide 2-7 (inferred); ends not checked
# B23: SEQ ID NO: 358 (peptide)
# peptide: GCRTGTCTVQWLAHQIYQFTDKDKDNVAPRTNVSPNG[Hyp]-NH2
# modifications: disulfide 2-7 (inferred); ends not checked
# B24: SEQ ID NO: 347 (peptide)
# peptide: GCRTGTCTVQWLAHQIYQFTDKDKDNVAPRSKVGPNG[Hyp]-NH2
# modifications: disulfide 2-7 (inferred); ends not checked
# B25: SEQ ID NO: 357 (peptide)
# peptide: GCRTGTCTVQWLAHQIYQFTDKDKDNVAPRTKIGPQG[Hyp]-NH2
# modifications: disulfide 2-7 (inferred); ends not checked
# B26: SEQ ID NO: 349 (peptide)
# peptide: GCRTGTCTVQWLAHQIYQFTDKDKDNVAPRTKVGPQG[Hyp]-NH2
# modifications: disulfide 2-7 (inferred); ends not checked
# B27: SEQ ID NO: 36 (peptide)
# peptide: KCK([AEEA-AEEA-γGlu-C20 diacid])TATCTVQRLAEQIYQFTDKDKDNVAPPTNVGSNG[Hyp]-NH2
# modifications: disulfide 2-7 (inferred); ends not checked
# B28: SEQ ID NO: 355 (peptide)
# peptide: GCRTGTCTVQWLAHQIYQFTDKDKDNVAPRSKIGPNG[Hyp]-NH2
# modifications: disulfide 2-7 (inferred); ends not checked
# B29: SEQ ID NO: 34 (peptide)
# peptide: KCNTATCTVQRLAHQIYQFTDKDKDNVAPRTKVGSNGY
# B30: SEQ ID NO: 361 (peptide)
# peptide: B29 peptide with T4F
# B31: SEQ ID NO: 337 (peptide)
# peptide: GCRFGTCTVQWLAHQIYQFTDKDKDNVAPRTKISPNG[Hyp]-NH2
# modifications: disulfide 2-7 (inferred); ends not checked
# B32: SEQ ID NO: 338 (peptide)
# peptide: KCNTATCTVQWLAHQIYQATDKDKDNVAPPTNVGSNG[Hyp]-NH2
# modifications: disulfide 2-7 (inferred); ends not checked
# B33: SEQ ID NO: 350 (peptide)
# peptide: GCRFGTCTVQWLAHQIYQFTDKDKDNVAPRTKISPQG[Hyp]-NH2
# modifications: disulfide 2-7 (inferred); ends not checked
# Biological target: T1, hAMY3R (human, UniProt P30988)
# T1 sequence 1: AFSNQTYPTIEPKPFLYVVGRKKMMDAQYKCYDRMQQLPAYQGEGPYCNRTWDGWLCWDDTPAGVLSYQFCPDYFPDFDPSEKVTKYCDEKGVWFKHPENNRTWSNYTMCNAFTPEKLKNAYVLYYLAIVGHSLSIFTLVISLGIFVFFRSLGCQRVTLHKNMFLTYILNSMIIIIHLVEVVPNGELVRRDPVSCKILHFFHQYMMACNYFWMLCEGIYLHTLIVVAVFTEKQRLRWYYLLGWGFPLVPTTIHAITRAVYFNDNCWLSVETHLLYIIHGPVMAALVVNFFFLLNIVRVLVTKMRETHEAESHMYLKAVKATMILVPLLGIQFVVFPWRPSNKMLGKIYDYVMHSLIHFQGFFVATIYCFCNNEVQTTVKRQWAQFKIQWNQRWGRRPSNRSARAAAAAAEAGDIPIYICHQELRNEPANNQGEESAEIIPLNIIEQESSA
# T1 sequence 2: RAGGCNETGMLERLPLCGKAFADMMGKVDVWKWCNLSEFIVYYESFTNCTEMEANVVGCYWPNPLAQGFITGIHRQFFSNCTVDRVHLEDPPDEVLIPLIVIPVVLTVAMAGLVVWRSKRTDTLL
# Assay: cell-based or functional assay
row,Binder,hAMY3R EC50 (cAMP)
1,B1,0.017 nM
2,B2,0.943 nM
3,B3,0.047 nM
4,B4,0.006 nM
5,B5,0.029 nM
6,B6,0.029 nM
7,B7,0.01 nM
8,B8,0.054 nM
9,B9,0.165 nM
10,B10,0.027 nM
11,B11,0.04 nM
12,B12,0.015 nM
13,B13,0.079 nM
14,B14,0.022 nM
15,B15,0.085 nM
16,B16,0.007 nM
17,B17,0.121 nM

row,Binder,hAMY3R EC50 (cAMP)
1,B18,0.041 nM
2,B19,0.091 nM
3,B20,0.051 nM
4,B21,0.009 nM
5,B22,0.145 nM
6,B23,0.071 nM
7,B24,0.068 nM
8,B25,0.115 nM
9,B26,0.046 nM
10,B27,0.009 nM
11,B28,0.14 nM
12,B29,0.009 nM
13,B30,0.006 nM
14,B31,0.019 nM
15,B32,0.089 nM
16,B33,0.044 nM

# Biological target: hAM1R (human, UniProt Q16602)
# Assay: cell-based or functional assay
row,Binder,hAM1R EC50 (cAMP)
1,B1,117 nM
2,B2,> 5000 nM
3,B3,> 5000 nM
4,B4,> 5000 nM
5,B5,738 nM
6,B6,> 5000 nM
7,B7,1.77 nM
8,B8,> 5000 nM
9,B9,> 5000 nM
10,B10,2920 nM
11,B11,1120 nM
12,B12,> 5000 nM
13,B13,> 5000 nM
14,B14,671 nM
15,B15,> 5000 nM
16,B16,18.1 nM
17,B17,> 5000 nM

row,Binder,hAM1R EC50 (cAMP)
1,B18,> 5000 nM
2,B19,> 5000 nM
3,B20,113 nM
4,B21,> 5000 nM
5,B22,> 5000 nM
6,B23,> 5000 nM
7,B24,> 5000 nM
8,B25,> 5000 nM
9,B26,> 5000 nM
10,B27,> 5000 nM
11,B28,> 5000 nM
12,B29,54.6 nM
13,B30,0.913 nM
14,B31,1580 nM
15,B32,> 5000 nM
16,B33,1180 nM
